The values that follow come from US20250206837A1 (ELIXIRON IMMUNOTHERAPEUTICS HONG KONG, published 2025).

Assay [1] deals with T1, Recombinant His-tagged human CD36.ECD protein (Sino Biological) (human, UniProt P16671 30-439).
T1 construct: Bought protein; also called hCD36.ECD; hCD36; not shown: His tag
Put plainly: BLI (Octet), antibody on AHC sensor, His-tagged hCD36.ECD in solution, 1:1 fit. How it is done:
BLI assay materials and method: Kinetic rate constants, ka and kd, for binding of the anti-CD36 antibodies to human CD36 were measured by Bio-Layer Interferometry (BLI) (ForteBio Octet RED96). […] Rate constants were calculated by curve fitting analyses (1:1 Langmuir model) of binding response with a 2.5-minute association and 5-minute dissociation interaction time.
For orientation: BLI is a label-free optical method that tracks binding on a fibre tip over time.

For assay [2], the target named is T1, Recombinant His-tagged human CD36.ECD …. The experiment in a line: ELISA, coated human CD36.ECD (FIG. 1C). How it is done:
(§1) ELISA materials and methods: Recombinant His-tagged human CD36.ECD protein or His-tagged mouse CD36.ECD protein (both from Sino Biological) was immobilized on 96 well microtiter plate at a concentration of 1 μg/mL in Coating Solution (SeraCare) overnight at 4° C. The wells were washed with wash solution (0.05% Tween20 in PBS) and blocked with 1% BSA in PBS. Serial dilutions of anti-CD36 antibodies were added to wells. After incubation at 37° C. for 1 h, the wells were washed with wash solution. Peroxidase-conjugated Goat anti-human kappa Light chain antibody (Sigma) was applied to each well at 37° C. for 1 h incubation. After washing, the wells were developed with TMB substrate for 5-10 min at room temperature and then stopped with 1 N HCl. Thereafter absorbance was measured at 450 nm and 650 nm. EC50 values were calculated through GraphPad Prism7.
(§2) ELISA data plots showing binding of anti-CD36 antibodies to recombinant human CD36.ECD or mouse CD36.ECD coated on ELISA plates are depicted in FIG. 1C and 1D, respectively.
(In an ELISA, binding on a coated surface is turned into a signal by an enzyme label.)

Assay [3] concerns the target T2, Recombinant His-tagged mouse CD36.ECD protein (Sino Biological) (mouse, UniProt Q08857 30-439).
T2 construct: Bought protein; also called mCD36.ECD; mCD36; not shown: His tag
The experiment in a line: ELISA, coated mouse CD36.ECD (FIG. 1D). How it is done:
as §1, §2

Assay [4] addresses T3, mouse CD36-His overexpressed on stable F293 cells (mouse, UniProt Q08857 1-472). Put plainly: cell-based or functional assay.
In assay [5] the target is T4, full-length human CD36-Flag overexpressed on stable F293 cells (human, UniProt P16671 2-472). The experiment in a line: cell-based or functional assay.
The target in assay [6] is T1, Recombinant His-tagged human CD36.ECD …. Put plainly: ELISA, coated human CD36.ECD (FIG. 2C). How it is done: as §1
(§3) The competitor anti-CD36 antibody ONA, which is derived from clone “ONA-0-v1” as disclosed in WO2021176424A1 in hIgG4-S228P-FALA format.

Assay [7] addresses T5, rhesus CD36-His overexpressed on stable F293 cells (rhesus, UniProt P16671 2-472 (human entry)).
T5 construct: Gene segment from Sino Biological; also called F293/rhesusCD36; not shown: His tag
Put plainly: flow cytometry, F293 cells overexpressing rhesus CD36. The source says:
(§4) After washing with FACS buffer (2% FBS in PBS), the cells were stained with anti-human IgG-Alexa Fluor 647 and analyzed by Attune NxT Flow Cytometer (Thermo Scientific).

Assay [8] has as its target T4, full-length human CD36-Flag …. The experiment in a line: flow cytometry, F293 cells overexpressing human CD36.
Excerpt: as §4

Assay [9] has as its target T3, mouse CD36-His overexpressed on stable …. Put plainly: flow cytometry, F293 cells overexpressing mouse CD36.
Excerpt: as §4
(In general: In flow cytometry, cells or beads pass a laser one at a time.)

Assay [10] concerns the target T1, Recombinant His-tagged human CD36.ECD …. The experiment in a line: ELISA, coated human CD36.ECD (FIG. 2D). How it is done: as §1, §3
The target is the same in assay [11]. The experiment in a line: ELISA, coated human CD36.ECD (FIG. 2F). How it is done:
as §1, §3

The target is the same in assay [12]. Put plainly: ELISA, coated human CD36.ECD (FIG. 2E). How it is done: as §1, §3
Assay [13] shares this target. Put plainly: ELISA, coated human CD36.ECD (FIG. 2A). How it is done: as §1, §3
The target is the same in assay [14]. The experiment in a line: hCD36 ELISA, plate coated with human CD36.ECD, antibody titrated, OD (450-650) nm. How it is done: as §1, §3

“And” between values parts separate entries of the source, which are not always exact repeats. Identical values can stand only once.

T4 sequence (P16671 2-472): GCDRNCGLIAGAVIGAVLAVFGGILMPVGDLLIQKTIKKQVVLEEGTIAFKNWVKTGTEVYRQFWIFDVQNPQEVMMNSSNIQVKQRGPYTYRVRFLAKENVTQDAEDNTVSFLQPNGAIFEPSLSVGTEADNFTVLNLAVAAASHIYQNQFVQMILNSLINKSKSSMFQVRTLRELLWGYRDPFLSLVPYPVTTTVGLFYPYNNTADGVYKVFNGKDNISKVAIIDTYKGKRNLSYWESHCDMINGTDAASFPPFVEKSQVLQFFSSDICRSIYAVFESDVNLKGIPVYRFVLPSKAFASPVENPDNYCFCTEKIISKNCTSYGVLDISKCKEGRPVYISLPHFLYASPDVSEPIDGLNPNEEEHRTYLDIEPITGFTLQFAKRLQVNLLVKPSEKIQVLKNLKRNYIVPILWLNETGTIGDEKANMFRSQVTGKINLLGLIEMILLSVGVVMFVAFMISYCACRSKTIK
T1 sequence (P16671 30-439 limits assumed): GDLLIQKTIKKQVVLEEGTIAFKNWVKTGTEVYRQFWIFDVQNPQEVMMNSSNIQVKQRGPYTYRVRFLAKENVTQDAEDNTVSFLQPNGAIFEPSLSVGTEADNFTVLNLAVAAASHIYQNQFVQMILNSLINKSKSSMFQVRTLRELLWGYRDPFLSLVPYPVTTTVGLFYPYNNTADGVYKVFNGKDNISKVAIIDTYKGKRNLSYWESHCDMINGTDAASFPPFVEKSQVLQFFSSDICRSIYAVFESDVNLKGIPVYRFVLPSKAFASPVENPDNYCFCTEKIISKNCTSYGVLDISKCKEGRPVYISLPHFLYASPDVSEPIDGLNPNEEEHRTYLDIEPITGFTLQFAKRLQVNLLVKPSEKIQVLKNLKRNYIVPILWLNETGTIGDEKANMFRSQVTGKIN
T3 sequence (Q08857 whole entry): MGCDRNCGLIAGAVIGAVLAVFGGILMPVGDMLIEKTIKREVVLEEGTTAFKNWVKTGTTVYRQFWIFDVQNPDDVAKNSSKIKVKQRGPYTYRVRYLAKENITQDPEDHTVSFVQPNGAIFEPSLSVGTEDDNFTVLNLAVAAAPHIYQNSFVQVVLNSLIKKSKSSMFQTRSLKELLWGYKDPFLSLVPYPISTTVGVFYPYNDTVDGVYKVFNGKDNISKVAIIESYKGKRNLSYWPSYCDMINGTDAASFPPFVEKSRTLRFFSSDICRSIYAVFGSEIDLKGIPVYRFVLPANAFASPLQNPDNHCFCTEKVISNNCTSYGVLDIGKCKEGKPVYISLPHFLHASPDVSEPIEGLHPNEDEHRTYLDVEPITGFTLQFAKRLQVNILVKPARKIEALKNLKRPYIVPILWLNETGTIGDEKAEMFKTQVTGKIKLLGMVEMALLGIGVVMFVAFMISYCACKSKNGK
T5 sequence (P16671 other isoform, or with tags, fused parts or gaps): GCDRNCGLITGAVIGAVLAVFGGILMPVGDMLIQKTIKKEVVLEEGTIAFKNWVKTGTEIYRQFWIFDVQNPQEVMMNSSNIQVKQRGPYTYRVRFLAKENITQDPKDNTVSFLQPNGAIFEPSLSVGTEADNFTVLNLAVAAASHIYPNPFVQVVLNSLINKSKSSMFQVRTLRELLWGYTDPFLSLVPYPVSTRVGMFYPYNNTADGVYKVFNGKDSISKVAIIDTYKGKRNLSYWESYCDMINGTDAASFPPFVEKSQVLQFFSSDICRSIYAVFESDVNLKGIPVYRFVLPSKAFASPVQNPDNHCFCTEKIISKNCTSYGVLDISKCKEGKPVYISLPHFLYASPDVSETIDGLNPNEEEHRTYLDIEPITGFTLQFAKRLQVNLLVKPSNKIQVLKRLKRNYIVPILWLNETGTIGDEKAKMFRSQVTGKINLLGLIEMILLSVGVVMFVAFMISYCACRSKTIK
T2 sequence (Q08857 30-439 limits assumed): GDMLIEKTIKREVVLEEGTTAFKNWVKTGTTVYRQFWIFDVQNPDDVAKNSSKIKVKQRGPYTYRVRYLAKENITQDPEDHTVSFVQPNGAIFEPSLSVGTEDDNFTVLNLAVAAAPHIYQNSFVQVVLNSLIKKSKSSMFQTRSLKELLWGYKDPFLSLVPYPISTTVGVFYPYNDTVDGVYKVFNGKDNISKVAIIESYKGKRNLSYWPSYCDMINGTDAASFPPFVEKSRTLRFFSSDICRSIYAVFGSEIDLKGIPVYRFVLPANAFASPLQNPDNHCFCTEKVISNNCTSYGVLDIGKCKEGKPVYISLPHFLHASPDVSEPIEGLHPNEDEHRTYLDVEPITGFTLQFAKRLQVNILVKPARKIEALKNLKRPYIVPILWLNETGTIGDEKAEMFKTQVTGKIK

B1: A8A (antibody, human IgG1, kappa, N297A, V domains shown)
VH: EVQLVESGGGLVQPGGSLRLSCAASGFTISSFGIHWVRQAPGKGLEWVAWIAPYGGYTYYADSVKGRFTISADTSKNTAYLQMNSLRAEDTAVYYCARSFFGYFDYWGQGTLVTVSS
VL: DIQMTQSPSSLSASVGDRVTITCRASQDVSNWVAWYQQKPGKAPKLLISYANSLYSGVPSRFSGSGSGTDFTLTISSLQPEDFATYYCQQHSNLPLTFGQGTKVEIKR
notes: Full-length human IgG1-N297A, kappa; also called A8A (IgG1)
For the molecule B1, in [1], the Kd (as a rule, the constant that tells how readily two partners part at equilibrium) amounted to 3.42 nM; the dissociation rate constant (koff) (in general, the first-order rate constant of dissociation) was 0.00462 s⁻¹; the kon – broadly, a measure of how fast the partners come together – was 1.35e+06 M⁻¹ s⁻¹. Also, the half-maximal effective concentration (EC50) (as a rule, the concentration at which the effect is half-maximal) in [2] was 5.17 nM. The EC50 in assay [3] worked out at 0.94 nM.

B2: 117_30DA (antibody, V domains shown)
VH: EVQLVESGGGLVQPGGSLRLSCAASGFTIDAFGIHWVRQAPGKGLEWVAWIAPYGGYTYYADSVKGRFTISADTSKNTAYLQMNSLRAEDTAVYYCARSFFGYFDYWGQGTLVTVSS
VL: DIQMTQSPSSLSASVGDRVTITCRASQDVSNWVAWYQQKPGKAPKLLISYATSLYSGVPSRFSGSGSGTDFTLTISSLQPEDFATYYCQQHSNAPLTFGQGTKVEIKR
notes: full-length IgG, human kappa
For B2, the “oxLDL uptake IC50 (nM), F293/mCD36” value in [4] is 1.07 nM. The “oxLDL uptake IC50 (nM), F293/hCD36” value in [5] was 0.691 nM. The EC50 in [6] came to 0.137 nM; in assay [7], 1.04 µg/mL; in assay [8] it was 0.157 µg/mL; in [9] it was 0.488 µg/mL; in assay [10] it was 0.0803 nM.

B3: 117_AA57E (antibody, V domains shown)
VH: EVQLVESGGGLVQPGGSLRLSCAASGFTIAAFGIHWVRQAPGKGLEWVAWIAPYGGETYYADSVKGRFTISADTSKNTAYLQMNSLRAEDTAVYYCARSFFGYFDYWGQGTLVTVSS
VL: DIQMTQSPSSLSASVGDRVTITCRASQDVSNWVAWYQQKPGKAPKLLISYATSLYSGVPSRFSGSGSGTDFTLTISSLQPEDFATYYCQQHSNAPLTFGQGTKVEIKR
notes: full-length IgG, human kappa
As for B3, the concentration for a half-maximal effect (EC50) in [11] was 0.251 nM.

B4: 117_101Y (antibody, V domains shown)
VH: EVQLVESGGGLVQPGGSLRLSCAASGFTISSFGIHWVRQAPGKGLEWVAWIAPYGGYTYYADSVKGRFTISADTSKNTAYLQMNSLRAEDTAVYYCARSFYGYFDYWGQGTLVTVSS
VL: DIQMTQSPSSLSASVGDRVTITCRASQDVSNWVAWYQQKPGKAPKLLISYATSLYSGVPSRFSGSGSGTDFTLTISSLQPEDFATYYCQQHSNAPLTFGQGTKVEIKR
notes: full-length IgG, human kappa
Regarding B4, the EC50 in assay [12] stood at 0.355 nM.

B5: 117_AA57D (antibody, V domains shown)
VH: EVQLVESGGGLVQPGGSLRLSCAASGFTIAAFGIHWVRQAPGKGLEWVAWIAPYGGDTYYADSVKGRFTISADTSKNTAYLQMNSLRAEDTAVYYCARSFFGYFDYWGQGTLVTVSS
VL: DIQMTQSPSSLSASVGDRVTITCRASQDVSNWVAWYQQKPGKAPKLLISYATSLYSGVPSRFSGSGSGTDFTLTISSLQPEDFATYYCQQHSNAPLTFGQGTKVEIKR
notes: full-length IgG, human kappa
B5: the concentration for a half-maximal effect (EC50) in assay [11] came out at 0.192 nM.

B6: 117_57E (antibody, V domains shown)
VH: EVQLVESGGGLVQPGGSLRLSCAASGFTISSFGIHWVRQAPGKGLEWVAWIAPYGGETYYADSVKGRFTISADTSKNTAYLQMNSLRAEDTAVYYCARSFFGYFDYWGQGTLVTVSS
VL: DIQMTQSPSSLSASVGDRVTITCRASQDVSNWVAWYQQKPGKAPKLLISYATSLYSGVPSRFSGSGSGTDFTLTISSLQPEDFATYYCQQHSNAPLTFGQGTKVEIKR
notes: full-length IgG, human kappa
In the case of B6, in assay [4], the “oxLDL uptake IC50 (nM), F293/mCD36” value amounted to 0.796 nM. Moreover, in assay [5], the “oxLDL uptake IC50 (nM), F293/hCD36” value worked out at 0.419 nM. Also, the EC50 in assay [11] is 0.206 nM; in [13] it was 0.0492 nM; in assay [7] it was 0.419 µg/mL and 0.362 µg/mL; in assay [8], 0.11 µg/mL and 0.091 µg/mL; in [9], 0.331 µg/mL and 0.279 µg/mL.

B7: 117_DA57E (antibody, V domains shown)
VH: EVQLVESGGGLVQPGGSLRLSCAASGFTIDAFGIHWVRQAPGKGLEWVAWIAPYGGETYYADSVKGRFTISADTSKNTAYLQMNSLRAEDTAVYYCARSFFGYFDYWGQGTLVTVSS
VL: DIQMTQSPSSLSASVGDRVTITCRASQDVSNWVAWYQQKPGKAPKLLISYATSLYSGVPSRFSGSGSGTDFTLTISSLQPEDFATYYCQQHSNAPLTFGQGTKVEIKR
notes: full-length IgG, human kappa
Turning to B7, in assay [5], the “oxLDL uptake IC50 (nM), F293/hCD36” value was 0.306 nM. Besides, the EC50 was 0.19 nM in assay [11]; 0.563 µg/mL and 0.671 µg/mL in assay [7]; 0.109 µg/mL and 0.0968 µg/mL in [8]; 0.425 µg/mL and 0.375 µg/mL in assay [9]; 0.0539 nM in [10].

B8: 117_101S (antibody, V domains shown)
VH: EVQLVESGGGLVQPGGSLRLSCAASGFTISSFGIHWVRQAPGKGLEWVAWIAPYGGYTYYADSVKGRFTISADTSKNTAYLQMNSLRAEDTAVYYCARSFSGYFDYWGQGTLVTVSS
VL: DIQMTQSPSSLSASVGDRVTITCRASQDVSNWVAWYQQKPGKAPKLLISYATSLYSGVPSRFSGSGSGTDFTLTISSLQPEDFATYYCQQHSNAPLTFGQGTKVEIKR
notes: full-length IgG, human kappa
Regarding B8, the EC50 in assay [12] was determined as 0.929 nM.

B9: 117_101H (antibody, V domains shown)
VH: EVQLVESGGGLVQPGGSLRLSCAASGFTISSFGIHWVRQAPGKGLEWVAWIAPYGGYTYYADSVKGRFTISADTSKNTAYLQMNSLRAEDTAVYYCARSFHGYFDYWGQGTLVTVSS
VL: DIQMTQSPSSLSASVGDRVTITCRASQDVSNWVAWYQQKPGKAPKLLISYATSLYSGVPSRFSGSGSGTDFTLTISSLQPEDFATYYCQQHSNAPLTFGQGTKVEIKR
notes: full-length IgG, human kappa
Regarding B9, the EC50 in assay [12] was 1.6 nM.

B10: 57T (antibody, V domains shown)
VH: EVQLVESGGGLVQPGGSLRLSCAASGFTISSFGIHWVRQAPGKGLEWVAWIAPYGGTTYYADSVKGRFTISADTSKNTAYLQMNSLRAEDTAVYYCARSFFGYFDYWGQGTLVTVSS
VL: DIQMTQSPSSLSASVGDRVTITCRASQDVSNWVAWYQQKPGKAPKLLISYATSLYSGVPSRFSGSGSGTDFTLTISSLQPEDFATYYCQQHSNAPLTFGQGTKVEIKR
notes: the sheet prints only 57T
In the case of B10, the binding result in [14] is given as “no binding (tested: about 20 nM)”.
